Each binder was assayed against T1, HLA-A*02:01 (human) (assay: UV-ligand exchange ELISA (anti-β2m), peptide exchange yield grade).
T1 construct: MHC class I monomer made peptide-receptive by UV cleavage of a UV-sensitive ligand; also called peptide-receptive MHC molecules
Excerpt: Candidate peptides for T cell based therapies according to the present invention were further tested for their MHC binding capacity (affinity). The individual peptide-MHC complexes were produced by UV-ligand exchange, where a UV-sensitive peptide is cleaved upon UV-irradiation, and exchanged with the peptide of interest as analyzed. Only peptide candidates that can effectively bind and stabilize the peptide-receptive MHC molecules prevent dissociation of the MHC complexes. To determine the yield of the exchange reaction, an ELISA was performed based on the detection of the light chain (β2m) of stabilized MHC complexes. The assay was performed as generally described in Rodenko et al. (Rodenko et al., 2006).
96 well MAXISorp plates (NUNC) were coated over night with 2ug/ml streptavidin in PBS at room temperature, washed 4× and blocked for1h at 37° C. in 2% BSA containing blocking buffer. Refolded HLA-A*02:01/MLA-001 monomers served as standards, covering the range of 15-500 ng/ml. Peptide-MHC monomers of the UV-exchange reaction were diluted 100 fold in blocking buffer. Samples were incubated for 1h at 37° C., washed four times, incubated with 2 ug/ml HRP conjugated anti-β2m for 1h at 37° C., washed again and detected with TMB solution that is stopped with […]. Absorption was measured at 450 nm. Candidate peptides that show a high exchange yield (preferably higher than 50%, most preferred higher than 75 %) are generally preferred for a generation and production of antibodies or fragments thereof, and/or T cell receptors or fragments thereof, as they show sufficient avidity to the MHC molecules and prevent dissociation of the MHC complexes.
Binder RVLPPSALQSV [peptide RVLPPSALQSV (SEQ ID NO: 124)] has a peptide exchange yield of 50 to 75%. For ILLTIKDDTIYL [peptide ILLTIKDDTIYL (SEQ ID NO: 104)], the peptide exchange yield was 50 to 75%. With YALDLSTFL [peptide YALDLSTFL (SEQ ID NO: 105)] the peptide exchange yield was 50 to 75%. For SLAELVPGVGGI [peptide SLAELVPGVGGI (SEQ ID NO: 108)], the peptide exchange yield was 50 to 75%. SLAPNIISQL [peptide SLAPNIISQL (SEQ ID NO: 121)] showed a peptide exchange yield of 50 to 75%. In the case of ALVQGILERV [peptide ALVQGILERV (SEQ ID NO: 12)], the peptide exchange yield is reported as 50 to 75%. YLFEKTFNM [peptide YLFEKTFNM (SEQ ID NO: 11)] was tested, and the peptide exchange yield was 50 to 75%. In the case of LLGELPRLLLL [peptide LLGELPRLLLL (SEQ ID NO: 110)], the peptide exchange yield is reported as 50 to 75%. Work on ALLGGGPYML [peptide ALLGGGPYML (SEQ ID NO: 107)] yielded a peptide exchange yield of 50 to 75%. Work on VLIDVLKEL [peptide VLIDVLKEL (SEQ ID NO: 129)] yielded a peptide exchange yield of 50 to 75%. LLADLKTMV [peptide LLADLKTMV (SEQ ID NO: 118)] showed a peptide exchange yield of 50 to 75%. Binder GLGGSQLIDTHL [peptide GLGGSQLIDTHL (SEQ ID NO: 130)] has a peptide exchange yield of 20 to 50%. With SLMGMVLKL [peptide SLMGMVLKL (SEQ ID NO: 122)] the peptide exchange yield was 50 to 75%. In the case of ILYDLQQNL [peptide ILYDLQQNL (SEQ ID NO: 113)], the peptide exchange yield is reported as 20 to 50%. For ALDGDQMEL [peptide ALDGDQMEL (SEQ ID NO: 109)], the peptide exchange yield was 20 to 50%. With RLAELTVDEFLA [peptide RLAELTVDEFLA (SEQ ID NO: 127)] the peptide exchange yield was 50 to 75%. Work on KLGQVLIYL [peptide KLGQVLIYL (SEQ ID NO: 112)] yielded a peptide exchange yield of 20 to 50%. Binder TLQPVDNSTISL [peptide TLQPVDNSTISL (SEQ ID NO: 117)] has a peptide exchange yield of 20 to 50%. KTLERSYLL [peptide KTLERSYLL (SEQ ID NO: 123)] gave a peptide exchange yield of 20 to 50%. KLGDFGLLVEL [peptide KLGDFGLLVEL (SEQ ID NO: 125)] showed a peptide exchange yield of at least 75%. With SLISEKILL [peptide SLISEKILL (SEQ ID NO: 106)] the peptide exchange yield was 50 to 75%. TAVGHALVL [peptide TAVGHALVL (SEQ ID NO: 114)] showed a peptide exchange yield of 10 to 20%. SLFDVSHML [peptide SLFDVSHML (SEQ ID NO: 115)] gave a peptide exchange yield of 50 to 75%. Binder VLYEGVDEV [peptide VLYEGVDEV (SEQ ID NO: 120)] has a peptide exchange yield of 20 to 50%. In the case of ILYQTVTGL [peptide ILYQTVTGL (SEQ ID NO: 119)], the peptide exchange yield is reported as 20 to 50%. For TLAKYLMEL [peptide TLAKYLMEL (SEQ ID NO: 126)], the peptide exchange yield was 50 to 75%. For MLDDRAYLV [peptide MLDDRAYLV (SEQ ID NO: 128)], the peptide exchange yield was 20 to 50%. ALIKQLFEA (also called ZNF-002) [peptide ALIKQLFEA (SEQ ID NO: 1)] was tested, and the peptide exchange yield was 50 to 75%. LVYQFVHPI [peptide LVYQFVHPI (SEQ ID NO: 116)] gave a peptide exchange yield of 20 to 50%. RMYNKIFAI [peptide RMYNKIFAI (SEQ ID NO: 10)] was tested, and the peptide exchange yield was 50 to 75%.

Source: patent publication US20230212244A1 (IMMATICS BIOTECHNOLOGIES, published 2023)
